Ends that are not written are not given here.

Experimental findings from patent US20240376151A1, “STAPLED PEPTIDES AND METHODS THEREOF” (FOG PHARMACEUTICALS, INC., priority 2022, published 2024) are described below.

Experiment [1] addresses T1, RNF31 UBA domain (Homo sapiens, UniProt Q96EP0).
T1 construct: RNF31 UBA domain protein (residues 480-639) with N-terminal Thioredoxin-TEV-6×his-yBBr-3C tags; Thioredoxin (N, cleaved yes); made in house; host or cells: E. coli BL21 (DE3) pLysS
T1 sequence (Q96EP0 480-639): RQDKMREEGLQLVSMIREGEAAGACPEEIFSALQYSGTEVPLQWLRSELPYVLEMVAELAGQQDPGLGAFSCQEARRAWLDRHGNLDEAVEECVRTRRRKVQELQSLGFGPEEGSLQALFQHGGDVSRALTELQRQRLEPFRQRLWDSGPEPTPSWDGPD
The experiment is described as follows: Phage Library Screening with NGS, RNF31 UBA domain. In kind it is binding. Conditions: for phage screen NGS read-out at Target Concentration 10 / phage screen NGS read-out at Target Concentration 30 / phage screen NGS read-out at Target Concentration 100 / phage screen NGS read-out at Target Concentration 300: no competitor; for Phage library screen NGS readout, BLANK: cluster C46.

Experiment [2] concerns the target T2, beta-catenin (Homo sapiens, UniProt P35222).
T2 construct: made in house; host or cells: E. coli BL21 (DE3) pLysS
T2 sequence (P35222 134-665): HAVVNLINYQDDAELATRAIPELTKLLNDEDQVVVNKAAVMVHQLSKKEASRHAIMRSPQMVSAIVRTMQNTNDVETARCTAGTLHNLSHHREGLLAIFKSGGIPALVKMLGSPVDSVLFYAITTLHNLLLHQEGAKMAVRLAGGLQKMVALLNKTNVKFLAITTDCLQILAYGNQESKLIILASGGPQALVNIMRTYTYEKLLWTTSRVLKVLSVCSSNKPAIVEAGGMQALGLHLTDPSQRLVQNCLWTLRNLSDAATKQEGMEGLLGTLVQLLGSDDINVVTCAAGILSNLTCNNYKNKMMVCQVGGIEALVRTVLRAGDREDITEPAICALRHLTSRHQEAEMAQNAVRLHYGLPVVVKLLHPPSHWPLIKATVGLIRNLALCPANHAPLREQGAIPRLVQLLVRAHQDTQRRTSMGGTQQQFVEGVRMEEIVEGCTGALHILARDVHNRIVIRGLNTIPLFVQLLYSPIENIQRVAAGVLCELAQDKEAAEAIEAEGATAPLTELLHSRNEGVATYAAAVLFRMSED
Put plainly: Phage Library Screening with NGS, beta-catenin. In kind it is binding. Conditions: for Target Concentration 10 (phage screen NGS readout): beta-catenin target concentration 10; for Target Concentration 10 (phage screen NGS readout) / Target Concentration 30 (phage screen NGS readout) / Target Concentration 100 (phage screen NGS readout) / Target Concentration 300 (phage screen NGS readout): no competitor; for Target Concentration 30 (phage screen NGS readout): beta-catenin target concentration 30; for Target Concentration 100 (phage screen NGS readout): beta-catenin target concentration 100; for Target Concentration 300 (phage screen NGS readout): beta-catenin target concentration 300; for Target Concentration 1000 (phage screen NGS readout): beta-catenin target concentration 1000.

In the case of DPASMVCLSAAVYCAMH, in experiment [1], the “phage screen NGS read-out at Target Concentration 10” value was found to be 1, the “phage screen NGS read-out at Target Concentration 30” value is given as 15, the “phage screen NGS read-out at Target Concentration 100” value is 38 and the “phage screen NGS read-out at Target Concentration 300” value worked out at 77.
The matching figures for DPAQWVCHMAAMNCLYQ: 0, 1, 0 and 4.
For the sequence DPAQMSCFSAAVYCRLF, in experiment [1] (RNF31 UBA domain cluster C46, target concentration 10), the “Phage library screen NGS readout, Target Concentration 10” value was found to be 0. For the same sequence, the “Phage library screen NGS readout, Target Concentration 30” value in experiment [1] (RNF31 UBA domain cluster C46, target concentration 30) was found to be 0. Moreover, the “Phage library screen NGS readout, Target Concentration 100” value in experiment [1] (RNF31 UBA domain cluster C46, target concentration 100) came to 11. For the same sequence, the “Phage library screen NGS readout, Target Concentration 300” value in experiment [1] (RNF31 UBA domain cluster C46, target concentration 300) is given as 10. The “Phage library screen NGS readout, Target Concentration 1000” value in experiment [1] (RNF31 UBA domain cluster C46, target concentration 1000, first column) was determined as 10; in experiment [1] (RNF31 UBA domain cluster C46, target concentration 1000, second column) it was 17. Besides, the “Phage library screen NGS readout, BLANK” value in experiment [1] (column 1 of 5), in experiment [1] (column 2 of 5), in experiment [1] (column 3 of 5), in experiment [1] (column 4 of 5) and in experiment [1] (column 5 of 5) was 0 each time.
In the case of DPAQWACEHAALLCSMD, the “Target Concentration BLANK (phage screen NGS readout)” value (from here on “Target Concentration BLANK”) in experiment [2] (first column) turned out to be 0; in experiment [2] (fourth column) it was 0; in experiment [2] (second column) it was 1; in experiment [2] (third column), 0. For the same sequence, the “Target Concentration 10 (phage screen NGS readout)” value in experiment [2] was 6. The “Target Concentration 30 (phage screen NGS readout)” value in experiment [2] was 35. Further, in experiment [2], the “Target Concentration 100 (phage screen NGS readout)” value turned out to be 226. Moreover, the “Target Concentration 300 (phage screen NGS readout)” value in experiment [2] is 419. Also, the “Target Concentration 1000 (phage screen NGS readout)” value in experiment [2] (first 1000 column) is given as 326; in experiment [2] (second 1000 column), 432.
On to DPAWILCDWAAMHCELV, for which the “Target Concentration BLANK” value in experiment [2] (first column), in experiment [2] (fourth column), in experiment [2] (second column) and in experiment [2] (third column) was 0 each time. In experiment [2], the “Target Concentration 10 (phage screen NGS readout)” value is on record as 0. Moreover, the “Target Concentration 30 (phage screen NGS readout)” value in experiment [2] is recorded as 0. Also, in experiment [2], the “Target Concentration 100 (phage screen NGS readout)” value amounted to 2. Further, the “Target Concentration 300 (phage screen NGS readout)” value in experiment [2] worked out at 3. The “Target Concentration 1000 (phage screen NGS readout)” value was determined as 1 in experiment [2] (first 1000 column) and 18 in experiment [2] (second 1000 column).
DPAFESCFLAAHICYWE: the “Target Concentration BLANK” value in experiment [2] (first column), in experiment [2] (fourth column), in experiment [2] (second column) and in experiment [2] (third column) was 0 each time. Also, in experiment [2], the “Target Concentration 10 (phage screen NGS readout)” value is 2. Also, in experiment [2], the “Target Concentration 30 (phage screen NGS readout)” value is on record as 0. In experiment [2], the “Target Concentration 100 (phage screen NGS readout)” value was determined as 10. The “Target Concentration 300 (phage screen NGS readout)” value in experiment [2] was 7. Also, the “Target Concentration 1000 (phage screen NGS readout)” value is given as 18 in experiment [2] (first 1000 column) and 16 in experiment [2] (second 1000 column).
For “DPADYECVIAAQVCQHF (not fully specified; cysteine pairing not given here)”, the “Target Concentration BLANK” value in experiment [2] (first column) worked out at 0; in experiment [2] (fourth column) it was 0; in experiment [2] (second column), 4; in experiment [2] (third column), 0. The “Target Concentration 10 (phage screen NGS readout)” value in experiment [2] is on record as 0. Also, in experiment [2], the “Target Concentration 30 (phage screen NGS readout)” value is on record as 1. Also, in experiment [2], the “Target Concentration 100 (phage screen NGS readout)” value worked out at 11. Further, the “Target Concentration 300 (phage screen NGS readout)” value in experiment [2] amounted to 18. The “Target Concentration 1000 (phage screen NGS readout)” value stood at 19 in experiment [2] (first 1000 column) and 14 in experiment [2] (second 1000 column).
Turning to DPASWRCEHAALNCQID, the “Target Concentration BLANK” value in experiment [2] (first column), in experiment [2] (fourth column), in experiment [2] (second column) and in experiment [2] (third column) was 0 throughout. In experiment [2], the “Target Concentration 10 (phage screen NGS readout)” value came out at 0. Also, in experiment [2], the “Target Concentration 30 (phage screen NGS readout)” value is reported as 6. Besides, the “Target Concentration 100 (phage screen NGS readout)” value in experiment [2] stood at 20. Moreover, in experiment [2], the “Target Concentration 300 (phage screen NGS readout)” value is given as 18. Also, the “Target Concentration 1000 (phage screen NGS readout)” value is 21 in experiment [2] (first 1000 column) and 57 in experiment [2] (second 1000 column).
For DPATIRCYEAAFMCQYW, the “Target Concentration BLANK” value in experiment [2] (first column), in experiment [2] (fourth column), in experiment [2] (second column) and in experiment [2] (third column) was 0 each time. For the same sequence, in experiment [2], the “Target Concentration 10 (phage screen NGS readout)” value is 0. Moreover, the “Target Concentration 30 (phage screen NGS readout)” value in experiment [2] was determined as 0. For the same sequence, in experiment [2], the “Target Concentration 100 (phage screen NGS readout)” value turned out to be 3. For the same sequence, the “Target Concentration 300 (phage screen NGS readout)” value in experiment [2] is recorded as 34. For the same sequence, the “Target Concentration 1000 (phage screen NGS readout)” value came to 21 in experiment [2] (first 1000 column) and 38 in experiment [2] (second 1000 column).
Turning to DPAELACEWAAIHCELV, the “Target Concentration BLANK” value in experiment [2] (first column), in experiment [2] (fourth column), in experiment [2] (second column) and in experiment [2] (third column) was 0 each time. In experiment [2], the “Target Concentration 10 (phage screen NGS readout)” value is 0. The “Target Concentration 30 (phage screen NGS readout)” value in experiment [2] was 2. For the same sequence, the “Target Concentration 100 (phage screen NGS readout)” value in experiment [2] came to 41. In addition, the “Target Concentration 300 (phage screen NGS readout)” value in experiment [2] was 94. Moreover, the “Target Concentration 1000 (phage screen NGS readout)” value in experiment [2] (first 1000 column) is reported as 69; in experiment [2] (second 1000 column) it was 75.
Consider DPAHLMCHYAAWDCRDE, for which the “Target Concentration BLANK” value in experiment [2] (first column), in experiment [2] (fourth column), in experiment [2] (second column) and in experiment [2] (third column) was 0 in each case. Also, the “Target Concentration 10 (phage screen NGS readout)” value in experiment [2] amounted to 0. The “Target Concentration 30 (phage screen NGS readout)” value in experiment [2] was 0. Also, the “Target Concentration 100 (phage screen NGS readout)” value in experiment [2] is reported as 11. The “Target Concentration 300 (phage screen NGS readout)” value in experiment [2] is on record as 13. The “Target Concentration 1000 (phage screen NGS readout)” value turned out to be 12 in experiment [2] (first 1000 column) and 23 in experiment [2] (second 1000 column).
Turning to DPAVFMCYEAAFECQYF, the “Target Concentration BLANK” value in experiment [2] (first column) was found to be 0; in experiment [2] (fourth column), 0; in experiment [2] (second column), 2; in experiment [2] (third column), 1. Further, the “Target Concentration 10 (phage screen NGS readout)” value in experiment [2] is given as 0. For the same sequence, the “Target Concentration 30 (phage screen NGS readout)” value in experiment [2] stood at 0. Further, the “Target Concentration 100 (phage screen NGS readout)” value in experiment [2] is listed as 0. Besides, in experiment [2], the “Target Concentration 300 (phage screen NGS readout)” value is listed as 1. Further, the “Target Concentration 1000 (phage screen NGS readout)” value in experiment [2] (first 1000 column) is 2; in experiment [2] (second 1000 column), 7.
For the sequence DPAEWYCEHAALVCTNH, the “Target Concentration BLANK” value in experiment [2] (first column) was 2; in experiment [2] (fourth column) it was 1; in experiment [2] (second column), 0; in experiment [2] (third column) it was 0. Moreover, the “Target Concentration 10 (phage screen NGS readout)” value in experiment [2] is 0. In experiment [2], the “Target Concentration 30 (phage screen NGS readout)” value came out at 12. Besides, the “Target Concentration 100 (phage screen NGS readout)” value in experiment [2] turned out to be 47. Moreover, the “Target Concentration 300 (phage screen NGS readout)” value in experiment [2] is recorded as 156. In addition, the “Target Concentration 1000 (phage screen NGS readout)” value in experiment [2] (first 1000 column) turned out to be 148; in experiment [2] (second 1000 column), 155.
Regarding DPAVIACYDAAFVCEYF, the “Target Concentration BLANK” value in experiment [2] (first column) stood at 0; in experiment [2] (fourth column), 0; in experiment [2] (second column), 1; in experiment [2] (third column), 0. Moreover, in experiment [2], the “Target Concentration 10 (phage screen NGS readout)” value stood at 0. In addition, the “Target Concentration 30 (phage screen NGS readout)” value in experiment [2] was 0. Further, the “Target Concentration 100 (phage screen NGS readout)” value in experiment [2] stood at 0. Moreover, the “Target Concentration 300 (phage screen NGS readout)” value in experiment [2] is listed as 0. The “Target Concentration 1000 (phage screen NGS readout)” value in experiment [2] (first 1000 column) and in experiment [2] (second 1000 column) was 3 each time.
